Experimental data: the supplement of paper PMC12042874
± gives the uncertainty stated by the source.

Assay: amyloid nucleation score (Sup35N fusion, yeast selection) (log enrichment); library NNK1; higher = more nucleation; inactive = no reads after selection
In short: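 Libraries of peptides of 20 random codons fused to Sup35N were expressed in psi-negative yeast and induced 24 hours with 100 μM copper sulfate. Selection was 7 days at 30°C on medium lacking adenine and uracil, and plasmid inserts were Illumina-sequenced before and after selection. Nucleation score is the DiMSum log enrichment of output over input reads, centred on the mode score of non-aggregating sequences, and sequences with under 100 input reads were left out.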

Row | Substance | amyloid nucleation score
1 | CVVLMMGVPAKAGLLLLHWS | 0.297 ± 0.35
2 | WCMATCLIMVCANYVICLVG | 0.927 ± 0.55
3 | ERLYLSRYSMVIFVGLMCKS | -0.145 ± 0.61
4 | LRVNGEKIKASLPFEGD | 0.197 ± 0.51
5 | DAMHCCKTDYYIIGISGPSD | 0.732 ± 0.68
6 | MVVQRLF | -0.54 ± 0.78
7 | WSKHLAYIVYDVQ | -0.325 ± 1
8 | SVNFRYPWCFTVGGMTVLLQ | 0.007 ± 0.73
9 | SISNPRSLLYVSRSYNSDEF | -0.956 ± 0.8
10 | WQVNVLIIMCGSFLLVFDFQ | 0.359 ± 0.45
11 | NYAQVLRTSFTNGVLTLKEE | -0.526 ± 0.86
12 | VFRTISYRV | 0.039 ± 0.69
13 | KVTLNFRSHSLENCDAYNKY | 3.15 ± 0.12
14 | HFWLDARSRAKKPAQGIIKG | -0.426 ± 0.34
15 | FKWLTVRGNDRGILDDG | -0.158 ± 0.52
16 | VVGELLGGTNRFGKRVSSMA | -0.057 ± 0.26
17 | FPLGTQDRIIRFVESQYDSM | -0.516 ± 1.7
18 | KCQIGSMVLSYMVELPGDRD | -0.171 ± 0.36
19 | MRCKCGLYAHSYSALLGNVE | inactive
20 | VANFET | -0.769 ± 1.1
21 | KEGLRDGLLCRYQTCAG | 0.091 ± 0.48
22 | VFYGCVDESCDLNRLGSVSY | -0.101 ± 0.54
23 | VLGMCGTRYIDFF | 3.12 ± 0.085
24 | YYLEGSNALYIKVDRILRLL | -0.187 ± 0.54
25 | AVGRPPIRYRNTHSISTDSE | 0.565 ± 0.31

Row | Substance | amyloid nucleation score
26 | GSYWWDCFVNGGYEKFCTVP | 0.191 ± 0.68
27 | AKIWVWSWWY | 0.039 ± 0.47
28 | WTRCHK | -0.297 ± 0.35
29 | YGMAF | -1.71 ± 2.4
30 | TSDFVVPM | 0.691 ± 0.41
31 | SYVMGLVYLIYTCKYWFFSE | -0.827 ± 1.7
32 | GELWLAHLLLRSRVRTHRCP | 5.78 ± 0.068
33 | YWEGWGKTRFKCNGSRSRAG | -1.01 ± 1.3
34 | YLDSILYMGLTDLVWQVGTT | -0.334 ± 0.43
35 | GSQIWW | 0.517 ± 0.46
36 | CLEVFKNGCRNLRTGRVINR | 1.03 ± 0.9
37 | FTVLVELALFMRSCLSRGFN | -0.261 ± 0.27
38 | PQALGSTHLQTRRDQHVIF | -0.046 ± 0.53
39 | MVVFDRRGLSYPVS | 0.556 ± 0.52
40 | AYGKRTNTRICDNKTLGVSS | -0.745 ± 2.4
41 | HTTFKGKSEAATRIIATQAR | -0.011 ± 0.41
42 | FGIPST | 1.05 ± 0.34
43 | QRRHMCCVNAFFRDMRKGIG | 1.63 ± 0.43
44 | YTVVLEKTKVMYTVAPPRSL | -1.04 ± 2.4
45 | LYEVNWVSYRMFAVGVRYVL | -0.397 ± 0.36
46 | EGRPECKARLSRYGRCRMNG | 0.447 ± 0.48
47 | ACLISMMLVLCYI | 1.67 ± 0.53
48 | ALSEFIFGLWLSFLIPRYMW | 1.21 ± 0.56
49 | YTGSL | -0.498 ± 0.63
50 | CVSGVDLYRGSLGACGW | inactive

Row | Substance | amyloid nucleation score
51 | IVPPLSNCSFIG | -0.293 ± 0.6
52 | LVLQRDIGSACVDCHGVGKA | 1.17 ± 0.52
53 | KLSRDFRGFYRT | inactive
54 | HCLGIRMVRRYILDRRCHWV | inactive
55 | YWLNNYYVVGNIS | 2.57 ± 0.25
56 | VPFLYVG | -0.792 ± 0.62
57 | DLPLDS | 0.16 ± 0.72
58 | KLLIP | -1.17 ± 0.58
59 | GLFVREFPLDMIVVMVRSMC | -0.017 ± 0.97
60 | CMVMFCCWNMWVDSVH | 7.237 ± 0.069
61 | YSGWEEITVFFSDARV | -0.115 ± 1.3
62 | TGYGSDNCI | inactive
63 | FFLPILGPW | -0.729 ± 1.7
64 | MAGSSMTISVLYSWIP | inactive
65 | SPTIVIKHRLNLESKRGYKV | -0.216 ± 0.44
66 | VCKFNYL | -0.769 ± 1.1
67 | GRRYCRANSWLATTSSRISL | 2.1 ± 0.44
68 | MVHWVILYAADFPIETLNK | inactive
69 | NYNTIWMMKWFNGRWFLSAV | -0.293 ± 0.94
70 | NLYMANGDVMCSREGAEQCS | 1.5 ± 0.14
71 | MNEERVGNLIFCRDSFMSSW | -0.096 ± 0.97
72 | CMSVVNLRCPDRTLVSLLPY | -0.326 ± 1.1
73 | VTGKTLTLIEFFIHSQPLSR | 0.217 ± 0.32
74 | FTMFFPMGSVC | 0.292 ± 0.64
75 | DGRFLCFHIGSLMSGWDGRQ | -0.783 ± 0.75

Row | Substance | amyloid nucleation score
76 | HSDVHNCFLLCRCTGYCLYS | 3.96 ± 0.16
77 | LFESGSRDFLRQKLTFGTVP | 0.066 ± 0.7
78 | HFVILVLFMMMSSIGMVTRA | 5.16 ± 0.054
79 | FRVMILLLTEMWSMESNRDL | 3.4 ± 0.14
80 | TSSVEVNPERVITISGTVS | -0.018 ± 0.17
81 | GCGFS | -0.126 ± 0.4
82 | GKYMFPCCMTAITQKLRPRR | -0.108 ± 0.33
83 | ICQYPPLEVLARYGQIQDIM | 0.207 ± 0.3
84 | DNRFERAVWVPHL | 3.78 ± 0.12
85 | TNFRRSCYVDGVC | inactive
86 | TWAHMQYDVWPDPTAEKDQV | 0.158 ± 0.34
87 | CSGTICLIIRKLAVILTSQR | inactive
88 | EMFCC | 0.554 ± 0.59
89 | MCFLLSYLRWLDYYSYVVVC | 0.962 ± 0.42
90 | ICNFVSLFNWK | -0.025 ± 0.79
91 | LRMNLSRKPANFCFKCIIGK | -0.348 ± 0.5
92 | IKIRAICVCMFDSQEGLGET | 0.601 ± 0.43
93 | LLSYPIPDMYSIEATTKRRI | 0.133 ± 1.4
94 | SFRYFKLSCYFFFLVFAVFF | -1.02 ± 2.4
95 | MGVDYARSVW | -0.202 ± 0.76
96 | IPKVIGWFTVVTTGVVVNIS | -1.59 ± 2.7
97 | MLRTQQFSLLFEYHVHGEGG | 3.75 ± 0.075
98 | IYRSVANSMKVSEYQIPLDS | -0.18 ± 0.54
99 | GRMTFFLVWNCVSFFVTQLL | -0.611 ± 2.1
100 | ILYGRIR | inactive

Row | Substance | amyloid nucleation score
101 | TIDCMLWGYFRNDSTKCTAA | 0.205 ± 0.47
102 | NCYMIFVKRLPLC | 0.023 ± 0.41
103 | CGHMR | 0.327 ± 0.33
104 | FWREHTMR | inactive
105 | ENVGRTLAYIWMVWLSSQML | 1.87 ± 0.67
106 | MDVPFLRKN | 0.154 ± 0.66
107 | IIEWFSWWARMIFDDFPYYE | inactive
108 | DLNDMAIRV | 0.004 ± 0.31
109 | FHVDDHKWRLPDGELSRTAM | -0.341 ± 0.78
110 | DTECRGMKVELHRTHRMGKF | -0.179 ± 0.62
111 | ELYPGF | -0.219 ± 1.2
112 | TGLELGVPKIRCMSFHVLPW | -0.394 ± 0.92
113 | GSDMCKSSVSECIKKLATIQ | inactive
114 | LKGHLHDSILQCRHKALFF | 0.922 ± 0.75
115 | RMDFIHISTAIFSKEVDSRR | 1.04 ± 0.47
116 | HSWGRKVF | -1.1 ± 0.47
117 | GFYGNIYFDNLRLNVMTRRG | 9.21 ± 0.061
118 | VHCHMEITSWLGRRS | 2.8 ± 0.12
119 | PTRLPYGTSLIWDTSHANWG | -0.706 ± 0.59
120 | RSEGRRGRFNMWSLAFGDVP | -0.218 ± 0.3
121 | SRWTFSNRAFYRTGAWA | 0.235 ± 0.68
122 | GSVAFFNLNMLRVLYIIYER | 0.369 ± 0.36
123 | KVIFYEFPTSQRFMGSMYDM | 1.88 ± 0.19
124 | FLVQVAWFLPAGGYGDNFCC | 0.049 ± 0.39
125 | LYSLGTSHEIPCLM | 0.442 ± 0.42

Row | Substance | amyloid nucleation score
126 | GGKRVGNIVVRRAQIIIGRR | 1.07 ± 0.7
127 | LAPNDGGRALSVDMRGWCDW | inactive
128 | RMYITMSQSRKVVICVMMVM | -0.164 ± 1.1
129 | CWVLNFVFGDCNLSCWGN | 7.185 ± 0.051
130 | AVCVPVSKDGPVKGKFINKY | 0.329 ± 0.41
131 | GNCWYV | -0.16 ± 0.31
132 | QLESMIYCVVSFYAAGVNFE | -0.468 ± 1.9
133 | NSHDKVGVSILWTGRSRLVA | -0.003 ± 0.45
134 | QRVVKVWWDTKPYVSMGSFL | 0.563 ± 0.44
135 | WNGLYRFCVVRAQGSFDET | -0.111 ± 0.32
136 | FLRTD | 0.171 ± 1.2
137 | WNDYAHILLKKRGGRYNLAG | -0.907 ± 0.74
138 | TIRVQHYCVDRGQESVLMGS | -0.524 ± 0.51
139 | SSKVERG | -0.139 ± 1.3
140 | KYFGFSVHSLLCYNRSLFLS | -0.055 ± 0.35
141 | HWVLDWQAQVRMPRNSVSGL | inactive
142 | SRLSLT | 0.179 ± 0.82
143 | GLTCSKAAIKRLG | -0.367 ± 0.54
144 | SFGANYTLILTVIIQRLADQ | 6.31 ± 0.083
145 | HLPTKLPSRIRYRCYDFHVI | -0.546 ± 0.97
146 | DDWIVRHCFNCLSVWMYLRY | 0.257 ± 0.9
147 | SRYIGSSPARMMASWTFQGL | 4.01 ± 0.078
148 | RSWKNKFYPVCFSKSGSRF | -0.215 ± 0.41
149 | MCVMVGLLYGVLLSSFTNNA | 0.684 ± 0.23
150 | ECGVFQVKTAGIGS | -0.425 ± 0.8

Row | Substance | amyloid nucleation score
151 | AFNKAVMSDTQL | -0.7 ± 0.6
152 | NESDI | 0.392 ± 0.26
153 | KSDRIKLYNKCWELAVLMKK | -0.555 ± 1.1
154 | TWQSLHGTVTRPRAIVFRLC | 0.027 ± 0.66
155 | HLPFYLCF | 1.57 ± 0.43
156 | HVWSILAISVYNAHRGSRV | 7.134 ± 0.051
157 | LVTRLALSFAVNFLLGDSCV | 0.595 ± 0.48
158 | LMNVVLISHKSFVYSR | -1.16 ± 2.7
159 | IFSSGYAKAFVHLVCSVAQL | -0.458 ± 0.45
160 | VRAELVTVGCLRRATYYRPK | -0.319 ± 1.2
161 | IKWTLLDG | 0.871 ± 0.47
162 | FDNVVENHSS | -0.074 ± 0.43
163 | YIFENLARAPMLQ | 0.259 ± 0.74
164 | SMWVWMHICEAMG | 4.6 ± 0.11
165 | VDGMGYDLIMCLYYNGLWAN | 0.515 ± 0.54
166 | TWSSGRETSCVLFWVQVSKL | -0.101 ± 0.33
167 | GNKDDTV | -1.6 ± 1.1
168 | YVFLRFVSVCSYN | 4.9 ± 0.05
169 | YGGFIESLLACAKGESRNMM | -0.608 ± 1
170 | WRLLCSITMDWF | -0.15 ± 0.22
171 | LYGGNSRFRLSSYRYGMFWN | inactive
172 | CWGWMARLAINLAGTGSNQK | 0.119 ± 0.71
